Experimental data taken from patent EP2225268B1.

Assays:
[1] = biological target: Wild-type recombinant human NGAL dimer expressed in CHO cells (human) (UniProt P80188); assay: … sandwich CMIA, capture HYB 211-01, detection acridinium-HYB 211-02; NGAL 600 ng/mL
[2] = biological target: Wild-type recombinant human NGAL monomer expressed in CHO cells (human) (UniProt P80188); assay: as above
[3] = biological target: Wild-type recombinant human NGAL dimer calibrators treated with DTT (human) (UniProt P80188); assay: as above
[4] = biological target: Native NGAL purchased from Diagnostics Development (Uppsala, Sweden), non-reduced (UniProt P80188); assay: as above
[5] = biological target: Wild-type recombinant human NGAL dimer calibrators treated with DTT (human) (UniProt P80188); assay: … sandwich CMIA, capture HYB 211-01, detection acridinium-HYB 211-02; DTT-treated against untreated dimer calibrator; target 5 ng/mL
[6] = biological target: Wild-type recombinant human NGAL dimer expressed in CHO cells (human) (UniProt P80188); assay: … sandwich CMIA, capture HYB 211-01, detection acridinium-HYB 211-02; curve fit with monomer calibrators; target 250 ng/mL
[7] = biological target: Wild-type recombinant human NGAL monomer expressed in CHO cells (human) (UniProt P80188); assay: as above
[8] = biological target: Wild-type recombinant human NGAL dimer calibrators treated with DTT (human) (UniProt P80188); assay: as above
[9] = biological target: Wild-type recombinant human NGAL dimer expressed in CHO cells (human) (UniProt P80188); assay: … sandwich CMIA, capture HYB 211-01, detection acridinium-HYB 211-02; calibrator E, NGAL 600 ng/mL
[10] = biological target: Wild-type recombinant human NGAL monomer expressed in CHO cells (human) (UniProt P80188); assay: as above
[11] = biological target: Wild-type recombinant human NGAL dimer calibrators treated with DTT (human) (UniProt P80188); assay: as above
[12] = biological target: Wild-type recombinant human NGAL dimer expressed in CHO cells (human) (UniProt P80188); assay: … sandwich CMIA, capture HYB 211-01, detection acridinium-HYB 211-02; NGAL 1000 ng/mL
[13] = biological target: Wild-type recombinant human NGAL monomer expressed in CHO cells (human) (UniProt P80188); assay: as above
[14] = biological target: Wild-type recombinant human NGAL dimer calibrators treated with DTT (human) (UniProt P80188); assay: as above
[15] = biological target: Native NGAL purchased from Diagnostics Development (Uppsala, Sweden), non-reduced (UniProt P80188); assay: as above
[16] = biological target: Wild-type recombinant human NGAL dimer calibrators treated with DTT (human) (UniProt P80188); assay: … sandwich CMIA, capture HYB 211-01, detection acridinium-HYB 211-02; DTT-treated against untreated dimer calibrator; target 600 ng/mL
[17] = biological target: Wild-type recombinant human NGAL dimer expressed in CHO cells (human) (UniProt P80188); assay: … sandwich CMIA, capture 1-2322-455, detection acridinium-1-903-430; curve fit with monomer calibrators; target 50 ng/mL
[18] = biological target: Wild-type recombinant human NGAL monomer expressed in CHO cells (human) (UniProt P80188); assay: as above
[19] = biological target: Wild-type recombinant human NGAL monomer expressed in CHO cells (human) (UniProt P80188); assay: … sandwich CMIA, capture 1-2322-455, detection acridinium-1-903-430; monomer calibrator plus TCEP; curve fit with monomer calibrators; target 50 ng/mL
[20] = biological target: Wild-type recombinant human NGAL dimer expressed in CHO cells (human) (UniProt P80188); assay: … sandwich CMIA, capture 1-2322-455, detection acridinium-1-903-430; curve fit with monomer calibrators; target 250 ng/mL
[21] = biological target: Wild-type recombinant human NGAL monomer expressed in CHO cells (human) (UniProt P80188); assay: as above
[22] = biological target: Wild-type recombinant human NGAL dimer expressed in CHO cells (human) (UniProt P80188); assay: … sandwich CMIA, capture 1-2322-455, detection acridinium-1-903-430; curve fit with monomer calibrators; target 1000 ng/mL
[23] = biological target: Wild-type recombinant human NGAL monomer expressed in CHO cells (human) (UniProt P80188); assay: as above
[24] = biological target: Wild-type recombinant human NGAL dimer expressed in CHO cells (human) (UniProt P80188); assay: … sandwich CMIA, capture 1-2322-455, detection acridinium-1-903-430; curve fit with monomer calibrators; target 600 ng/mL
[25] = biological target: Wild-type recombinant human NGAL monomer expressed in CHO cells (human) (UniProt P80188); assay: as above
[26] = biological target: Wild-type recombinant human NGAL dimer expressed in CHO cells (human) (UniProt P80188); assay: … sandwich CMIA, capture 1-2322-455, detection acridinium-1-903-430; NGAL 5 ng/mL

Q: How did the RLUs [1] turn out when “anti-NGAL antibody HYB 211-01 from AntibodyShop A/S, Gentofte, Denmark” was run?
A: The RLUs was 282000 RLUs.

Q: What about the RLUs [2] of the same molecule?
A: The RLUs was 691000 RLUs.

Q: And the RLUs [3]?
A: Its RLUs is 676000 RLUs.

Q: And the RLUs [4]?
A: Its RLUs is 1.07e+06 RLUs.

Q: What about the % Increase due to DTT [5] of the same molecule?
A: The % Increase due to DTT was 229%.

Q: And the Curve Fit Results [6]?
A: Its Curve Fit Results is 71.8 ng/mL.

Q: And the Curve Fit Results [7]?
A: The Curve Fit Results was 251 ng/mL.

Q: What about the Curve Fit Results [8] of the same molecule?
A: Its Curve Fit Results is 236 ng/mL.

Q: What about the RLUs [9] of the same molecule?
A: The RLUs was 282000 RLUs.

Q: And the RLUs [10]?
A: Its RLUs is 691000 RLUs.

Q: And the RLUs [11]?
A: The RLUs was 676000 RLUs.

Q: And the RLUs [12]?
A: The RLUs was 390000 RLUs.

Q: And the RLUs [13]?
A: The RLUs was 885000 RLUs.

Q: What about the RLUs [14] of the same molecule?
A: Its RLUs is 855000 RLUs.

Q: What about the RLUs [15] of the same molecule?
A: The RLUs was 1.32e+06 RLUs.

Q: And the % Increase due to DTT [16]?
A: The % Increase due to DTT was 256%.

B1: antibody produced by murine hybridoma cell line 1-2322-455 having ATCC Accession No. PTA-8024 (antibody, V domains shown)
VH: EVQLVESGGGLVQPGGSLKLSCAASGFTFNNYYMSWVRQTPERRLEWVAYISSSGGSTYYSDSVRGRFTISRDTARNTLYLQMTSLKSEDTAMYYCARHFGDYSYFDYWGQGTTLTVSS
VL: DIQMTQSPASLSASVGETVTITCRASENFYSYLAWYQQKQGKSPQLLVYNAKTLAEGVPSRFSGSGSGTQFSLKINSLQPEDFGTYYCQHHYDIPLTFGAGTKLELKR
Q: B1 was tested. Which Curve Fit Results [17] did it give?
A: Its Curve Fit Results is 13.5 ng/mL.

Q: What about the Curve Fit Results [18] of the same molecule?
A: The Curve Fit Results was 48.2 ng/mL.

Q: And the Curve Fit Results [19]?
A: The Curve Fit Results was 48.6 ng/mL.

Q: And the Curve Fit Results [20]?
A: The Curve Fit Results was 71.7 ng/mL.

Q: What about the Curve Fit Results [21] of the same molecule?
A: The Curve Fit Results was 255 ng/mL.

Q: What about the Curve Fit Results [22] of the same molecule?
A: The Curve Fit Results was 294 ng/mL.

Q: And the Curve Fit Results [23]?
A: Its Curve Fit Results is 1010 ng/mL.

Q: And the Curve Fit Results [24]?
A: The Curve Fit Results was 173 ng/mL.

Q: What about the Curve Fit Results [25] of the same molecule?
A: The Curve Fit Results was 591 ng/mL.

Q: And the RLUs [26]?
A: Its RLUs is 9120 RLUs.
